The target in assay [1] is GM130-NLS phospho-S25 (synthetic peptide with a phosphate moiety on Ser-25 of GM130, a.a. 13-40) (human). As to the kind of experiment: ITC; MicroCal iTC200, 25 °C, 20 mM HEPES pH 7.4, 1 mM DTT, with either 50 or 200 mM NaCl (which one is shown only in the figures); one-sites binding model. A general note: In ITC the heat of successive injections is recorded.
Assay [2] deals with GST-GM130-S25D (a.a. 1-85) (human). As to the kind of experiment: pull-down; GST-GM130 (or GST-IBB) and the recombinant partner at 1:1 molar ratio on glutathione sepharose beads, wash with 150 mM NaCl, elution with 50 mM reduced glutathione, SDS-PAGE, Coomassie blue.
Assay [3] shares this target. As to the kind of experiment: pull-down; competition: p115-CTD with GST-GM130-WT or GST-GM130-S25D and increasing concentrations of Importin-α FL (up to 40 μM); GST beads, SDS-PAGE, Coomassie blue, band intensities normalised by GST-GM130.
Assay [4] addresses GST-GM130-WT (a.a. 1-85) (human). Described as above.
For assay [5], the target named is GM130-NLS WT peptide (human). As to the kind of experiment: ITC; MicroCal iTC200, 25 °C, 20 mM HEPES pH 7.4, 1 mM DTT, with either 50 or 200 mM NaCl (which one is shown only in the figures); one-sites binding model.
Assay [6] has as its target GST-GM130-S25D (a.a. 1-85) (human). As to the kind of experiment: pull-down; 5 µM GST-GM130 with HEK293T cell lysate (RIPA buffer) and glutathione sepharose beads, washes with 150 mM NaCl, Western blot for Importin-α and Importin-β.

Data on 4 substances can be found in paper PMC6754406, “Ran pathway-independent regulation of mitotic Golgi disassembly by Importin-α” (Nature Communications, 2019).

Bounds are passed on as bounds.

Importin-β, recombinant, non-tagged, sequence (Q14974 whole entry): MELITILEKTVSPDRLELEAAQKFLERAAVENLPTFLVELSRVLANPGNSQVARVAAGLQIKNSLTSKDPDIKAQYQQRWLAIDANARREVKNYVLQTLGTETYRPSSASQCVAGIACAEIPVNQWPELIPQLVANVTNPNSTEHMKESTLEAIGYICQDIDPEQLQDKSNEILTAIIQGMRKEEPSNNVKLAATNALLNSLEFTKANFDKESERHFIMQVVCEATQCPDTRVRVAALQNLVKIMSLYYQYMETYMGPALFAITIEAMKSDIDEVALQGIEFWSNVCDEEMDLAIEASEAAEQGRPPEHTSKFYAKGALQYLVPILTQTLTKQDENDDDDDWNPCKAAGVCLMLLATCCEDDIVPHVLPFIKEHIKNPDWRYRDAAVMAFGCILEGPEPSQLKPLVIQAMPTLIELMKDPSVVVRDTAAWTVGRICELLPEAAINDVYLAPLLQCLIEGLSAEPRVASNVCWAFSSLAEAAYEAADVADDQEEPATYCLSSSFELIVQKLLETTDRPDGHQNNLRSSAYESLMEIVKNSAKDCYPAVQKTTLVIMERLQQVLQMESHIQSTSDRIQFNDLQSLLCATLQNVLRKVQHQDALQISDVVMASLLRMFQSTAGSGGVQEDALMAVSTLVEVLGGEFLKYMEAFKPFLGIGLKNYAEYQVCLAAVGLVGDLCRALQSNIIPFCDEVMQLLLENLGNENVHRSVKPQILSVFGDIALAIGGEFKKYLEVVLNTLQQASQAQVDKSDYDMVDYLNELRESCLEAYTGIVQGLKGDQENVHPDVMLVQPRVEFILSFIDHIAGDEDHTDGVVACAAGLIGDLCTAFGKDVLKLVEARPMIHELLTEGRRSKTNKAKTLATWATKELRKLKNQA

“Importin-α FL (full-length Importin-α), recombinant (from UniProt P52292 1-529) (natural protein)” displayed a fold lower dissociation constant than GM130-NLS WT in assay [1] of 3.3 fold. In assay [2], the percent of Importin-α FL pulled down relative to Importin-α(ΔIBB) was 50%. Also, the fold Importin-α FL pulldown against wild-type GM130 (40 μM Importin-α FL) in assay [3] stood at 2 fold. Further, the percent p115-CTD remaining on GM130 with 40 μM Importin-α FL in assay [3] came out at 20%; in assay [4], 38%.

As a reminder, the Kd is the constant that tells how readily two partners part at equilibrium. A higher Kd goes with lower affinity. Take “Importin-β, recombinant, non-tagged (from UniProt Q14974 1-876) (natural protein)”: the Kd in assay [5] stood at 1200 nM. For the same substance, the fold lower binding constant than the wild-type GM130 peptide in assay [1] is > 1000 fold.

For the substance “Importin-α(ΔIBB) (Importin-α lacking the IBB domain, a.a. 70-524) (from UniProt P52293 70-524) (domain or fragment)”, in assay [1], the Kd was 126 nM.

Substance “Importin-α, endogenous in HEK293T cells (from UniProt P52292 1-529) (natural protein)” yielded a fold Importin-α pulldown against wild-type GST-GM130 in assay [6] of 1.3 fold.
